# B1: PDH3 (TAT-fused peptide with wildtype PIDD DD helix 3) (peptide)
# peptide: YGRKKRRQRRRGGGGVSYREVQRIRHEFR
# notes: PIDD helix 3 (H3 of the death domain), wildtype; FITC-labelled versions were also made, but only for microscopy of cell entry; also called PIDD H3; source: synthetic peptide (Peptron)
# B2: PIDD DD (domain or fragment, UniProt Q9HB75 777-883, looked up)
# chain: LNLGDAETGFLTQSNLLSVAGRLGLDWPAVALHLGVSYREVQRIRHEFRDDLDEQIRHMLFSWAERQAGQPGAVGLLVQALEQSDRQDVAEEVRAVLELGRRKYQDS
# notes: PIDD death domain, amino acids 777-883; The His tag is named on the protein for the pull-down; also called his-tagged PIDD DD; PIDD death domain; source: E. coli BL21 (DE3) RILP, purified
# B3: RDH3 (TAT-fused peptide with wildtype RAIDD DD helix 3) (peptide)
# peptide: YGRKKRRQRRRGGGGLSQTDIYRCKANHPHNV
# notes: RAIDD helix 3 (H3 of the death domain), wildtype; FITC-labelled versions were also made, but only for microscopy of cell entry; also called RAIDD DD H3; source: synthetic peptide (Peptron)
# B4: RAIDD DD (domain or fragment)
# chain: not shown
# notes: RAIDD death domain, amino acids 94-199; also called RAIDD death domain; source: E. coli BL21 (DE3) RILP, purified
# Experiments:
# Settings in all cases: both partners purified
# RAIDD DD = molecular target: B4; assay: native gel or EMSA; native-PAGE on a PhastSystem, 8-25% acrylamide gradient gels, Coomassie staining; complexes in 20 mM Tris pH 8.0, 50 mM NaCl; pre-incubated with or without peptide for 1 hour at room temperature; complex band without peptide taken as 100%
# Chain of RAIDD DD (P78560 94-199): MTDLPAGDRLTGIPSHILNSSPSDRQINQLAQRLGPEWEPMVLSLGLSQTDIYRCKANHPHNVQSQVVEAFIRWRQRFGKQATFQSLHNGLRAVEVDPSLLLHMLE
# [1] = molecular target: T1, Full-length RAIDD without any tag (UniProt P78560 1-199); assay: pull-down; his-tagged PIDD DD on Ni-NTA beads, full-length RAIDD without any tag, with RDH3 or PDH3 (30 μM or 500 μM); wash 20 mM Tris-HCl pH 7.9, 500 mM NaCl, 30 mM imidazole; eluate on SDS-PAGE
# T1 construct: RAIDD, full length, amino acids 1-199; source: E. coli BL21 (DE3), purified
# T1 sequence (P78560 whole entry, the tested form may be a part): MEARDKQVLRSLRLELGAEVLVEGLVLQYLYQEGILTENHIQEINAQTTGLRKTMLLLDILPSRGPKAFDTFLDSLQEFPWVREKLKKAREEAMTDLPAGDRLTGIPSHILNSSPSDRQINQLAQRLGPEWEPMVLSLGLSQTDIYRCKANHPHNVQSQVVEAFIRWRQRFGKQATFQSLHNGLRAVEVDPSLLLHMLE
# full-length RAIDD = molecular target: T2, full-length RAIDD (UniProt P78560 1-199); assay: native gel or EMSA; native-PAGE on a PhastSystem, 8-25% acrylamide gradient gels, Coomassie staining; complexes in 20 mM Tris pH 8.0, 50 mM NaCl; pre-incubated with or without peptide for 1 hour at room temperature; complex band without peptide taken as 100%
# T2 construct: RAIDD, full length, amino acids 1-199; source: E. coli BL21 (DE3), purified (Ni-NTA, S-200 gel filtration)
# T2 sequence (P78560 whole entry, the tested form may be a part): as above
# PIDD DD = molecular target: B2; assay: as above
binder,measurement,setting,value
B1,fold inhibitory capacity against TAT-Y814A (blocking of RAIDD DD:PIDD DD),RAIDD DD,> 5 fold
B2,binding result,[1],binds
same,binding result,full-length RAIDD,binds
B3,fold inhibitory capacity against TAT-Y814A (blocking of RAIDD DD:PIDD DD),PIDD DD,> 5 fold
B4,binding result,PIDD DD,binds

# Source: PMC4977500, “Rescuing neuronal cell death by RAIDD- and PIDD- derived peptides and its implications for therapeutic intervention in neurodegenerative diseases” (Scientific Reports, 2016)
